What was measured:
[1] = biological target: T1, BiP-Sepharose (Homo sapiens, UniProt P11021); test: BiP-Sepharose extraction of proteins from patient plasma, serum, synovial fluid and mass-spectrometric identification; type: binding; conditions: for Specific binding to BiP-Sepharose from control serum: compared to RA patient III
T1 construct: The human BiP gene except the signal peptide encoding region was obtained from Geneart (Germany); linker […]; made in house; host or cells: HEK 293E cells, transient transfection, PABC674 vector; secreted into the medium
T1 sequence (P11021 19-654): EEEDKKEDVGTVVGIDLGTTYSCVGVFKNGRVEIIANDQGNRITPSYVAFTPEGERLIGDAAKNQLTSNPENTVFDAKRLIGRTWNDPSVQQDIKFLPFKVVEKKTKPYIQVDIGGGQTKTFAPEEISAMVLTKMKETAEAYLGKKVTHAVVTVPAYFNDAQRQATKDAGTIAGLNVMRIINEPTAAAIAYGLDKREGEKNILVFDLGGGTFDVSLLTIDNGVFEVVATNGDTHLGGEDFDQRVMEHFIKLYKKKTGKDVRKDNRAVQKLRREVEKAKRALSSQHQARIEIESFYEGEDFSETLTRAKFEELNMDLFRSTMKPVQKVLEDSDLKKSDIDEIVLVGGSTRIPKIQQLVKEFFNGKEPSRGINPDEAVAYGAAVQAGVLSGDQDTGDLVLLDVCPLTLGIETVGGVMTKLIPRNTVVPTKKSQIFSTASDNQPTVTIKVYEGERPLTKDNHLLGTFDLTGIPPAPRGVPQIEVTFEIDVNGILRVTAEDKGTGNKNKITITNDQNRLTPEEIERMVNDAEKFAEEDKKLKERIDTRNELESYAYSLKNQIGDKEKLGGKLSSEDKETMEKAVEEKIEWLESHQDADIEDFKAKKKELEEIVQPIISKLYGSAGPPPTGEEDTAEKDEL
Experimental: BiP was coated on CNBr-Sepharose (GE-Healthcare, Amersham Biosciences). Immobilization of BiP was performed essentially as described elsewhere in this application for NHS-Sepharose. CNBr-matrix was dissolved at 200 mg/ml in 1 mM HCl and treated the same as the NHS-matrix, except for an additional 5 minutes activation step in 1 mM HCl on a roller device before washing in this buffer. BiP was diluted in immobilization buffer (50 mM NaCl and 40 mM NaHCO3) to a concentration of 820 μg/ml. A total volume of 2 ml BiP solution (1640 μg BiP) was incubated with 360 mg beads. Negative control matrix was exposed to immobilization buffer, only. After overnight immobilization matrix was blocked with Tris and washed.
(§1) Six samples were incubated with the BiP-Sepharose, IgIV-Sepharose and the control-Sepharose: Normal pooled plasma, plasma of a patient I or of a patient II, with AL amyloidosis, serum of a patient III with RA (Rheumatoid Factor (RF) titer 682), control serum and synovial fluid of a patient IV with RA (RF titer 23). All samples were diluted 20× in HBS and applied to 200 μl beads in two volumes of 500 μl. One volume was incubated for 4 h at RT and supernatant was discarded after centrifugation (2 minutes at 1400 rpm). Subsequently, the second volume was applied to the same matrix and incubated overnight on a roller device at 4° C. […] To collect the eluates, the matrices were centrifuged and the two eluates were pooled for each sample.
(§2) Protein digests were desalted as described (Rappsilber et al., 2003), vacuum dried and dissolved in 2.5% formic acid.
(§3) For analysis of peptide mixtures, an Agilent 1100 HPLC system (Agilent Technologies) connected to a Thermo Finnigan LTQ-MS (Thermo Electron, Bremen, Germany) was used. Protein digests were injected on a trap column (Reprosil C18 RP (Dr Maisch, Germany), 20 mm×100 μm I.D.) at 5 μl/minute. Subsequently, the peptides were transferred with a split-reduced flow rate of 100 nL/minute solvent A (0.1 M acetic acid) on the analytical column (Reprosil C18 RP, 20 cm×50 μm I.D.). […] The column effluent was directly introduced into the ESI source of the mass spectrometer via a butt-connected nano-ESI emitter (New Objectives, Woburn, Mass.). The mass spectrometer was operated in the positive ion mode and parent ions were selected for fragmentation in data-dependent mode.
(§4) After mass spectrometric measurements, peak lists were generated using BioWorks software (Thermo Electron, Bremen, Germany). Protein identification was performed using Mascot software (www.matrixscience.com) by searching the IPIhuman database (version 3.24, downloaded from ftp://ftp.ebi.ac.uk/pub/databases/IPI/current) using the following settings: fully tryptic peptides, peptide tolerance 0.8 Da, MS/MS tolerance 0.9 Da, 1 missed cleavage allowed, carbamidomethyl (Cys) and oxidation (Met) as fixed and variable modification, respectively. The Scaffold software package (www.proteomesoftware.com) was used to parse the data and to filter peptides at a confidence level of 95%, allowing only protein identification with at least 2 peptides identified.

[2] = biological target: T1, BiP-Sepharose; test: Experiment 2: BiP-Sepharose extraction from six synovial fluid samples of RA patients and mass spectrometry; type: binding; conditions: BiP-Sepharose eluate, synovial fluid of RA patient
Experimental: as §1, §2, §3, §4
Those samples are listed below: • 1. […] One difference when compared to the protocol described above is that now with the twelve samples, elution buffer comprised 1 M NaCl. Again, a misfolded protein or a protein binding to misfolded protein is identified uniquely in the synovial fluid when no or a relatively very low number of fragments are detected in eluates of control-Sepharose.

[3] = Sample B3: eluate of BiP-Sepharose contacted with AL amyloidosis patient II plasma
[4] = Sample B2: eluate of BiP-Sepharose contacted with AL amyloidosis patient I plasma
[5] = Sample B6: eluate of BiP-Sepharose contacted with RA patient IV synovial fluid
[6] = Sample B4: eluate of BiP-Sepharose contacted with RA patient III serum
[7] = compared to AL amyloidosis patient I
[8] = compared to AL amyloidosis patient II

With “25 kDa protein/Immunoglobulin lambda locus [IPI00747752]” the “# of peptides in sample A#” value [1, 3] was 8.
In the case of “25 kDa protein/immunoglobulin lambda chain/rheumatoid factor G9 light chain (lambda V3)/IGLC1 protein [IPI00154742]”, the “# of peptides in sample A#” value [1, 4] is reported as 1 and the “# of peptides in sample A#” value [1, 3] is reported as 1.
With “26 kDa protein/Immunoglobulin kappa variable 1-5 [IPI00430820]” the “# of peptides in sample A#” value [1, 5] was 6.
With “26 kDa protein/immunoglobulin kappa variable 1-5 [IPI00738024]” the “# of peptides in sample A#” value [1, 4] was 1 and the “# of peptides in sample A#” value [1, 3] was 1.
For 187 kDa protein, complement component 3, the “# of unique peptides” value ([2]; Sample 1B) was 2 and the “# of unique peptides” value ([2]; Sample 5B) was 1.
“187 kDa protein/Complement component 3 [IPI00164623]” was tested, and the “# of peptides in sample A#” value [1, 6] was 9.
For (sero)transferrin [IPI00022463], the “Specific binding to BiP-Sepharose from normal pooled plasma” value [1, 7] was “specifically bound” and the “Specific binding to BiP-Sepharose from control serum” value [1] was “specifically bound”.
“Alpha-1-antitrypsin precursor/Serpin peptidase inhibitor, clade A (alpha-1 antiproteinase, antitrypsin), member 1 [IPI00553177]” was tested, and the “# of peptides in sample A#” value [1, 6] was 1.
Alpha-2-macroglobulin [IPI00478003] was tested, and the “Specific binding to BiP-Sepharose from normal pooled plasma” value [1, 7] was “specifically bound” and the “Specific binding to BiP-Sepharose from normal pooled plasma” value [1, 8] was “specifically bound”.
With Apolipoprotein A-I precursor the “# of unique peptides” value ([2]; Sample 1B) was 3 and the “# of unique peptides” value ([2]; Sample 3B) was 8.
With Apolipoprotein A-II precursor the “# of unique peptides” value ([2]; Sample 1B) was 1.
For “Apolipoprotein E precursor/Apolipoprotein E/Apolipoprotein E3 (Fragment) [IPI00021842]”, the “# of peptides in sample A#” value [1, 4] was 6.
With “Complement component 4 binding protein, alpha, C4b-binding protein alpha chain precursor (C4bp) (Proline-rich protein/PRP) [IPI00021727]” the “# of peptides in sample A#” value [1, 6] was 7 and the “Specific binding to BiP-Sepharose from normal pooled plasma” value [1, 8] was “specifically bound”.
In the case of “Dynein heavy chain domain 3/KIAA1503 protein (Fragment) [IPI00783464]”, the “# of peptides in sample A#” value [1, 3] is reported as 2.
With “Fc fragment of IgG binding protein (IgGFc-binding protein precursor/FcgammaBP/Fcgamma-binding protein antigen) [IPI00242956]” the “# of peptides in sample A#” value [1, 4] was 4.
In the case of “Full-length cDNA clone CS0DL004YM19 of B cells (Ramos cell line) of Homo sapiens (Fragment)/Unnamed protein product [IPI00328493]”, the “# of peptides in sample A#” value [1, 6] is reported as 4.
“GCN1 general control of amino-acid synthesis 1-like 1 (yeast)/GCN1-like protein 1 (HsGCN1) [IPI00001159]” was tested, and the “# of peptides in sample A#” value [1, 6] was 2.
In the case of “Hypothetical protein DKFZp686N02209/immunoglobulin heavy constant gamma 1 (G1m marker) [IPI00384938]”, the “# of peptides in sample A#” value [1, 3] is reported as 1.
In the case of “Hypothetical protein LOC651928/Immunoglobulin kappa variable 1-5/IGKV2-24 protein [IPI00440577]”, the “# of peptides in sample A#” value [1, 3] is reported as 1 and the “# of peptides in sample A#” value [1, 6] is reported as 1.
With Hypothetical protein [IPI00784983] the “# of peptides in sample A#” value [1, 3] was 2 and the “# of peptides in sample A#” value [1, 5] was 1.
With Hypothetical protein [IPI00807428] the “# of peptides in sample A#” value [1, 4] was 1.
For “Hypothetical protein/Heat shock 70 kDa protein 5 (glucose-regulated protein, 78 kDa = GRP78 = BiP = HSPA5) [IPI00003362]”, the “# of peptides in sample A#” value [1, 5] was 31.
“Hypothetical protein/Ig kappa chain V-II region RPMI 6410 precursor [IPI00550731]” was tested, and the “# of peptides in sample A#” value [1, 3] was 1.
In the case of “Hypothetical protein/immunoglobulin lambda locus/immunoglobulin lambda chain C regions (1/2/3)/immunoglobulin lambda variable V2-14/Ig lambda C3 protein (C2 segment protein, C3 segment protein)/Hypothetical protein DKFZp667J0B10 (Fragment) [IPI00760678]”, the “# of peptides in sample A#” value [1, 4] is reported as 1.
In the case of “Hypothetical protein/immunoglobulin lambda variable 4-3 [IPI00382938]”, the “# of peptides in sample A#” value [1, 4] is reported as 1 and the “# of peptides in sample A#” value [1, 3] is reported as 2.
“IGLC1 protein (immunoglobulin lambda C1)/immunoglobulin lambda chain/immunoglobulin C1 segment protein (fragment) [IPI00719373]” was tested, and the “# of peptides in sample A#” value [1, 3] was 1, the “# of peptides in sample A#” value [1, 6] was 2 and the “# of peptides in sample A#” value [1, 5] was 1.
With “IGLC2 protein (immunoglobulin lambda C2)/Immunoglobulin lambda [IPI00555945]” the “# of peptides in sample A#” value [1, 4] was 1.
“Ig heavy chain V-III region CAM [IPI00382482]” was tested, and the “# of peptides in sample A#” value [1, 5] was 2.
With “Ig heavy chain V-III region TUR/Ig heavy chain V-III region TIL [IPI00382478]” the “# of peptides in sample A#” value [1, 6] was 1.
With “Ig kappa chain V-I region WEA/Similar to Ig kappa chain V-I region HK102 precursor/Ig kappa chain V-I region AU [IPI00003111]” the “# of peptides in sample A#” value [1, 6] was 2.
For “Immunoglobulin J chain, Immunoglobulin J polypeptide, linker protein for immunoglobulin alpha and mu polypeptides [IPI00178926]”, the “# of peptides in sample A#” value [1, 6] was 5.
In the case of “Immunoglobulin lambda variable 3-25/V2-17 protein (Fragment) [IPI00550162]”, the “# of peptides in sample A#” value [1, 4] is reported as 8 and the “# of peptides in sample A#” value [1, 6] is reported as 10.
In the case of “Isoform 1 of Plectin-1/Plectin 1 (intermediate filament binding protein 500 kDa, Hemidesmosomal protein 1/HD1) [IPI00014898]”, the “# of peptides in sample A#” value [1, 3] is reported as 1 and the “# of peptides in sample A#” value [1, 6] is reported as 2.
For “Isoform Long of Antigen KI-67/Antigen KI-67 [IPI00004233]”, the “# of peptides in sample A#” value [1, 4] was 1.
“Myosin-reactive immunoglobulin light chain variable region/Ig kappa chain V-III region VH precursor (Fragment) [IPI00024138]” was tested, and the “# of peptides in sample A#” value [1, 6] was 3.
For “Phosphatase and actin regulator 4 isoform 1/Hypothetical protein DKFZp686L07205 [IPI00217851]”, the “# of peptides in sample A#” value [1, 6] was 2.
With “Single-chain Fv (Fragment) [IPI00470652]” the “# of peptides in sample A#” value [1, 3] was 2.
For “Vitronectin precursor (Serum-spreading factor/S-protein/V75 [Contains: Vitronectin V65 subunit; Vitronectin V10 subunit; Somatomedin B])/Vitronectin [IPI00298971]”, the “# of peptides in sample A#” value [1, 6] was 4.
With clusterin isoform 1 [IPI00291262] the “Specific binding to BiP-Sepharose from normal pooled plasma” value [1, 8] was “specifically bound” and the “Specific binding to BiP-Sepharose from control serum” value [1] was “specifically bound”.
For “complement factor H isoform I [IPI00029739]”, the “Specific binding to BiP-Sepharose from normal pooled plasma” value [1, 8] was “specifically bound”.
With haptoglobin [IPI00431645] the “Specific binding to BiP-Sepharose from normal pooled plasma” value [1, 7] was “specifically bound”, the “Specific binding to BiP-Sepharose from normal pooled plasma” value [1, 8] was “specifically bound” and the “Specific binding to BiP-Sepharose from control serum” value [1] was “specifically bound”.

Reference: US20100015126A1, “Methods of Binding of Cross-Beta Structures By Chaperones” (priority 2006, published 2010)
